B1: Azoarcus group I ribozyme (parent)
chain: GUGCCUUGCGCCGGGAAACCACGCAAGGGAUGGUGUCAAAUUCGGCGAAACCUAAGCGCCCGCCCGGGCGUAUGGCAACGCCGAGCCAAGCUUCGGCGCCUGCGCCGAUGAAGGUGUAGAGACUAGACGGCACCCACCUAAGGCAAACGCUAUGGUGAAGGCAUAGUCCAGGGAGUGGCGAAAGUCACACAAACCGG

Variants of: B1
Assay: reverse-splicing fitness (ratio to wild type); higher = more active; in vitro selection; Mg2+ level not given
Procedure, shortened: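 An in vitro group I ribozyme library with randomized positions was T7-transcribed and gel-purified. In triplicate, 10 pmol RNA in EPPS pH 7.5 was reacted with 50 pmoles of a 30-nt RNA substrate for 1 h at 37 °C across several added MgCl2 levels (1–48 mM), then stopped with EDTA. Products were reverse transcribed from a substrate-complementary primer, PCR-amplified and sequenced (HiSeq 4000). Fitness is a variant's read proportion after selection over that before, normalised to wild type.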
Work on C82A A111U C150U C169A U176G yielded a reverse-splicing fitness of 0.00786. Variant C82A A111U C150U C169A U176C has a reverse-splicing fitness of 0.015. C82A A111U C150U C169A U176A showed a reverse-splicing fitness of 0.0158. C82A A111U A145G C150G C169A U176G gave a reverse-splicing fitness of 0.0091. C82A A111U A145G C150G C169A U176C showed a reverse-splicing fitness of 0.0137. C82A A111U A145G C150G C169A U176A gave a reverse-splicing fitness of 0.0138. In the case of C82A A120C A145C C150G C169A U176G, the reverse-splicing fitness is reported as 0.00632. C82A A120C A145C C150G C169A U176C showed a reverse-splicing fitness of 0.00816. For C82A A120C A145C C150G C169A U176A, the reverse-splicing fitness was 0.0105. C82A A120C A145G C150U U176G gave a reverse-splicing fitness of 0.0102. Variant C82A A120C A145G C150U U176A has a reverse-splicing fitness of 0.0309. C82A A120C A145G C150U U176C gave a reverse-splicing fitness of 0.0551. Variant C82A A120C A145C C169A has a reverse-splicing fitness of 0.00831. With C82A A120C A145C C169G the reverse-splicing fitness was 0.0102. C82A A120C A145C C169U showed a reverse-splicing fitness of 0.0188. Variant C82A A111U A145G U176C has a reverse-splicing fitness of 0.151. C82A A111U A145G U176G gave a reverse-splicing fitness of 0.0224. With C82A A111U A145G U176A the reverse-splicing fitness was 0.0978. For C82A A111U A145U U176G, the reverse-splicing fitness was 0.0281. With C82A A111U A145U U176A the reverse-splicing fitness was 0.0937. C82A A111U A145U U176C showed a reverse-splicing fitness of 0.134. C82A A111U C169A gave a reverse-splicing fitness of 0.00917. For C82A A111U C169G, the reverse-splicing fitness was 0.00884. In the case of C82A A111U C169U, the reverse-splicing fitness is reported as 0.014. With C82A A120C A145U C150G U176A the reverse-splicing fitness was 0.00792. Variant C82A A120C A145G C150G C169U has a reverse-splicing fitness of 0.0111. Work on C82A A120C A145G C150G C169G yielded a reverse-splicing fitness of 0.00868. With C82A A120C A145G C150G C169A the reverse-splicing fitness was 0.01. In the case of C82A A120C A145U C150A C169G U176A, the reverse-splicing fitness is reported as 0.0165. C82A A120C A145U C150A C169G U176C showed a reverse-splicing fitness of 0.0221. C82A A120C A145U C150A C169G U176G gave a reverse-splicing fitness of 0.00546. Work on C82A A120C A145C C169A U176G yielded a reverse-splicing fitness of 0.00403. Variant C82A A120C A145C C169A U176C has a reverse-splicing fitness of 0.00953. For C82A A120C A145C C169A U176A, the reverse-splicing fitness was 0.015. C82A A111U A145G C150G C169A showed a reverse-splicing fitness of 0.0097. With C82A A111U A145G C150G C169U the reverse-splicing fitness was 0.0101. Work on C82A A111U A145G C150G C169G yielded a reverse-splicing fitness of 0.00774. With C82A A120C A145G C150A C169G U176G the reverse-splicing fitness was 0.00638. In the case of C82A A120C A145G C150A C169G U176C, the reverse-splicing fitness is reported as 0.0333. With C82A A120C A145G C150A C169G U176A the reverse-splicing fitness was 0.0191. C82A A120C A145G C169G U176C showed a reverse-splicing fitness of 0.0316. In the case of C82A A120C A145G C169G U176G, the reverse-splicing fitness is reported as 0.0041. For C82A A120C A145G C169G U176A, the reverse-splicing fitness was 0.0237. In the case of C82A A120C A145C C150U C169A U176A, the reverse-splicing fitness is reported as 0.0161. Variant C82A A120C A145C C150U C169A U176C has a reverse-splicing fitness of 0.00786. Variant C82A A120C A145C C150U C169A U176G has a reverse-splicing fitness of 0.00541. C82A A111U A145U C150G U176C showed a reverse-splicing fitness of 0.0189. C82A A111U A145U C150G U176A gave a reverse-splicing fitness of 0.01. Variant C82A A111U A145U C150G U176G has a reverse-splicing fitness of 0.00528. For C82A A120C A145U C150A C169A U176A, the reverse-splicing fitness was 0.0198. Work on C82A A120C A145U C150A C169A U176C yielded a reverse-splicing fitness of 0.0156. For C82A A120C A145U C150A C169A U176G, the reverse-splicing fitness was 0.00601. For C82A A120C A145C C150G C169U U176C, the reverse-splicing fitness was 0.0105. With C82A A120C A145C C150G C169U U176G the reverse-splicing fitness was 0.00498. For C82A A120C A145C C150G C169U U176A, the reverse-splicing fitness was 0.00681. For C82A A120C A145C C150U C169G U176C, the reverse-splicing fitness was 0.0186. Work on C82A A120C A145C C150U C169G U176A yielded a reverse-splicing fitness of 0.0287. For C82A A120C A145C C150U C169G U176G, the reverse-splicing fitness was 0.00542. Variant C82A A120C A145C C150A C169A U176A has a reverse-splicing fitness of 0.0195. Work on C82A A120C A145C C150A C169A U176G yielded a reverse-splicing fitness of 0.00574. For C82A A120C A145C C150A C169A U176C, the reverse-splicing fitness was 0.0102. C82A A120C A145G C150A C169U U176A showed a reverse-splicing fitness of 0.0177. C82A A120C A145G C150A C169U U176G showed a reverse-splicing fitness of 0.00765. With C82A A120C A145G C150A C169U U176C the reverse-splicing fitness was 0.0163. C82A A120C A145C C150G gave a reverse-splicing fitness of 0.0192. For C82A A120C A145C C150U, the reverse-splicing fitness was 0.035. Variant C82A A120C A145C C150A has a reverse-splicing fitness of 0.0144. In the case of C82A A111U A145G C169A U176C, the reverse-splicing fitness is reported as 0.0292. With C82A A111U A145G C169A U176A the reverse-splicing fitness was 0.0221. Variant C82A A111U A145G C169A U176G has a reverse-splicing fitness of 0.00574. Work on C82A A111U C150A C169G yielded a reverse-splicing fitness of 0.00884. In the case of C82A A111U C150A C169U, the reverse-splicing fitness is reported as 0.0125. Variant C82A A111U C150A C169A has a reverse-splicing fitness of 0.0117. Work on C82A A111U A145G C169G yielded a reverse-splicing fitness of 0.0102. Work on C82A A111U A145G C169U yielded a reverse-splicing fitness of 0.0129. Variant C82A A111U A145G C169A has a reverse-splicing fitness of 0.0104. Variant C82A A111U C169A U176C has a reverse-splicing fitness of 0.0202. For C82A A111U C169A U176G, the reverse-splicing fitness was 0.00595. With C82A A111U C169A U176A the reverse-splicing fitness was 0.0172. Work on C82A A120C A145G C150G C169G U176C yielded a reverse-splicing fitness of 0.0127. C82A A120C A145G C150G C169G U176A showed a reverse-splicing fitness of 0.013. Work on C82A A120C A145G C150G C169G U176G yielded a reverse-splicing fitness of 0.00719. In the case of C82A A120C A145C C150G U176G, the reverse-splicing fitness is reported as 0.00331.

From the RNAGym collection of RNA variant scans (doi:10.1093/molbev/msab373)
